# From patent publication CN115124620A (SHENGHE CHINA BIO PHARMACY CO LTD, dated 2022)
# T1: 人NKp30-his蛋白(KACTUS;Cat:NKP-HM430) (human, UniProt O14931 19-135)
# T1 construct: Bought protein; Molar concentration was calculated with 35 kDa; also called 重组人NKp30-his; 人NKp30蛋白; not shown: his tag
# T1 sequence (looked up): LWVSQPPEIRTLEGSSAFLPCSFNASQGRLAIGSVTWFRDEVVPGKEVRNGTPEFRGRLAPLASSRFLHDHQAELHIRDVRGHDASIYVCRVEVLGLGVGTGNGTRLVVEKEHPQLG
# Biological target: T1, 人NKp30-his蛋白(KACTUS;Cat:NKP-HM430)
# Test: BLI (Octet Red96e), antibody captured on sensor, 100 nM human NKp30-his in solution, 1:1 model
Binder,Kd,koff,kon
"抗体6 (antibody, V domains shown, Mouse hybridoma monoclonal antibody purified on Protein A; also called 鼠源抗NKp30抗体; NKp30 mAb) VH: QVQLQQSGAELVRPGVSVKISCKGSGYTFTDYAMHWVKQSHAKSLEWIGIISTYYGDASYNQKFKGKATMTVDKSSSTAYMELARLTSEDSAIYYCARDYDNRYAAMDYWGQGTSVTVSS VL: DIVMTQAAFSNPVTLGTSASISCRSSKSLLHSNGITYLYWYLQKPGQSPQLLIYQMSNLASGVPDRFSSSGSGTDFTLRISRVEAEDVGVYYCAQNLELPYTFGGGTKLEIK",5.43 nM,0.00585 s⁻¹,1.08e+06 M⁻¹ s⁻¹
"抗体2 (antibody, V domains shown, Mouse hybridoma monoclonal antibody purified on Protein A; also called 鼠源抗NKp30抗体; NKp30 mAb) VH: EVQLQQFGAELVKPGASVKISCKASGYTFTDYNMDWVKQSHGKSLEWIAYINPNYEITTYNQKFKGKATLTVDKSSSTAYMELRSLTSEDTAVYYCARGRGGYDPAMDYWGQGTSVTVSS VL: SIVMTQTPKFLLVSAGDRVTITCKASQSVSNDVTWSQQKPGQSPKLLIYYASNRYTGVPDRFTGSGYGTDFTFTISTVQAEDLAVYLCQQDNSTPPTFGAGTKLELK",0.197 nM,0.000212 s⁻¹,1.08e+06 M⁻¹ s⁻¹
"抗体5 (antibody, V domains shown, Mouse hybridoma monoclonal antibody purified on Protein A; also called 鼠源抗NKp30抗体; NKp30 mAb) VH: VLILKESGGGLVKPGGSLKLSCAASGFAFSSYDMSWVRQTPEKRLEWVATISSGGSYTYYPDSVKGRFTISRDNARNTLYLQMSSLRSEDTALYYCARHFGDHDGYVMDYWGQGTSVIVSS VL: DIVMTQSPSSLAMSLGQKVTMSCKSSQSLLNSSNQKSNLAWYQQKPGQSPKLLVYFASTRESGVPDRFIGSGSGTDFSLTIRSVQAEDLADYFCQQHYSTPFTFGSGTKLEIK",0.821 nM,0.000552 s⁻¹,673000 M⁻¹ s⁻¹
"抗体4 (antibody, V domains shown, Mouse hybridoma monoclonal antibody purified on Protein A; also called 鼠源抗NKp30抗体; NKp30 mAb) VH: EVQLVESGGGLVKPGGSLKLSCAASGFTFSDYGMSWIRQTPEKRLEWVASISSGGTYTYYPDSVKGRFTISRDSAKNTLYLQMNSLRSEDTAMYYCARRDGYYSVEYWGQGTSVTVSS VL: QIVLTQSPAIMSASPGGEVTMTCSASSSVSFMHWYQQKSGTSPKRWIFDTSKLASGVPTRFSGSGSGTSYSLTISSMEAEDAATYYCQQWTTNPPTFGGGTKLEIK",0.846 nM,0.000338 s⁻¹,399000 M⁻¹ s⁻¹

# Further binders by falling Kd, results first:
Kd,koff,kon,Binder
2.03 nM,0.00194 s⁻¹,959000 M⁻¹ s⁻¹,"抗体3 (antibody, V domains shown, Mouse hybridoma monoclonal antibody purified on Protein A; also called 鼠源抗NKp30抗体; NKp30 mAb) VH: QGQLQQSGAEVMKPGASVKISCKANGHTFGSYWIEWIKQRPGHGLEWIGEILPGSGSKKYNEKFEGKATFTEETSSNTAYMELTSLTSEDSAVYYCSRGGYYGSRFAYWGQGTLVTVSA VL: DVVLTQTPLSLPVNIGDQASISCKSTKSLLNSDGFTYLDWYLQKPGQSPQLLIYLVSNRFSGVPDRFSGSGSGTDFTLKISRVEAEDLGVYYCFQSNYLPFTFGSGTKLEIK"
0.439 nM,0.000708 s⁻¹,1.61e+06 M⁻¹ s⁻¹,"抗体1 (antibody, V domains shown, Mouse hybridoma monoclonal antibody purified on Protein A; also called 鼠源抗NKp30抗体; NKp30 mAb) VH: QVQLQQPGAELVKPGASVKLSCKASGYTFTSYWMEWVKLRPGQGFDWIGEINPSNGGTNYNEKFKRKAILTVDKSSSAAYMQLSGLTSEDSAVYYCTIGGDYAWFAYWGQGTLVTVSA VL: DIKMTQSPSSMYASLGERVTITCKASQDIKSYLSWYQQKPWKSPKTLIFYATSLADGVPSRFSASGSGQDYSLTISSLESDDTATYYCLQHGESPYTFGGGTKLEIK"
